These results are taken from US20220170056A1, “COMPOSITIONS AND METHODS FOR BIOSYNTHESIS OF […] CANNABINOIDS IN A HE[…]” (INMED PHARMACEUTICALS INC., priority 2019, published 2022).

The subject of assay [1] is MEP pathway flux. Nature of the assay: Lycopene production (MEP pathway flux) in recombinant E. coli. Type of assay: cell-based, E. coli BL21(DE3). To be noted: for terpene titer (lycopene and isoprene), in words: IspDF2 and IspDF3 versions of the Dxs-IspDF-Idi chassis, FIG. 18. Here is the method:
Both isoprene and lycopene starter cultures were cultivated overnight at 30° C. in LB media (Sigma-Aldrich) containing appropriate antibiotic/s. Isoprene starter cultures were then diluted to 15 mL with the medium to OD600 of 0.2, induced with arabinose and/or IPTG; and allowed to grow for 24 h at 30° C. in 25 mL sealed glass tube. Lycopene starter cultures were diluted to 5 mL with the medium to OD600 of 0.2, induced with IPTG, and allowed to grow for 24 h at 30° C. in culture tubes in the dark.
Lycopene is an intracellular product. 2 mL of cell culture was centrifuged at 8000 rpm for 5 min and lycopene was extracted by extraction from the pellet with 1 mL acetone. Extraction was performed at 55° C. with intermittent vortexing for 20 min in reduced light condition. The acetone suspension was centrifuged and filtered before analysis. Samples were analyzed on the PerkinElmer Flexar system equipped with Zorbax C-18 column (4.6×250 mm, Agilent Technologies) maintained at 30° C. Samples were run with mobile phase consisting of 66% (v/v) methanol, 30% (v/v) tetrahydrofuran and 4% (v/v) water at 1 mL/min flow rate. Lycopene detection was done by monitoring absorbance at 474 nm wavelength using a photodiode detector.

Assay [2] deals with E. coli. Kind of assay: Olivetolate (OA) uptake into E. coli expressing heterologous transporter. Type of assay: cell-based. To be noted: 24 to 48 hours after induction; compared to BL21 control without additional transporters (FIG. 8). The method, then: (§1) The following experimental host cells were tested: (1) E. coli transformed with plasmids encoding arabinose inducible transporters pcaK or pp3656; and (2)) E. coli transformed with plasmids encoding arabinose inducible transporters pcaK or pp3656 and B5 plasmid (encoding ispDF1 enzyme, GPPS, and an optimized variant NphB (see, Valliere et al.).
(§2) Seed cultures of (1) were inoculated from glycerol stock into 5 mL LB with 34 μg/mL chloramphenicol, incubate at 30° C. overnight. Seed cultures of (2) were inoculated from glycerol stock into 5 mL LB with 34 μg/mL chloramphenicol and 50 μg/mL kanamycin, incubate at 30° C. overnight.
Induction cultures of (1) were inoculated from seed culture into total culture volume 5 mL TB media with 0.1 mM OA and cultured at 30° C. until OD600 of 0.8. Cultures were induced by adding arabinose and magnesium to a final concentration of 5 mM arabinose and 5 mM MgCl2. During induction, cultures were incubated at 30° C. Induction culture samples were collected at 24 h and 48 hr time points after the start of induction.
(§3) Cultures first centrifuged at 3000 rpm for 10 m to separate pellet and culture media supernatant fractions. Pellets also washed with PBS twice. Cell pellets lysed with B-PER Complete Reagent following manufacturer's protocol. […] Samples of the cell lysates were analyzed by SDS-PAGE analysis. […]

In assay [3] the test system is E. coli. Nature of the assay: CBGA production in E. coli expressing NphB variant and transporter, fed OA. The class given is cell-based. To be noted: cells expressing NphB variant; compared to control cell not expressing a heterologous transporter (FIG. 9). The method, then: as §1, §2
Induction cultures of (2) were inoculated from seed culture into total culture volume 5 mL TB media with 0.5 mM OA, 5 mM MgCl2, and cultured at 30° C. until OD600 of 0.8. Cultures were induced by adding arabinose to a final concentration of 5 mM arabinose and IPTG to a final concentration of 100 μM. During induction, cultures were incubated at 30° C. Induction culture samples were collected at 24 h and 48 hr time points after the start of induction.
as §3

B1: IspEF fusion: non-natural fusion, E. coli IspE linked by flexible linker (FL) to E. coli IspF (protein)
chain: MRTQWPSPAKLNLFLYITGQRADGYHTLQTLFQFLDYGDTISIELRDDGDIRLLTPVEGVEHEDNLIVRAARLLMKTAADSGRLPTGSGANISIDKRLPMGGGLGGGSSNAATVLVALNHLWQCGLSMDELAEMGLTLGADVPVFVRGHAAFAEGVGEILTPVDPPEKWYLVAHPGVSIPTPVIFKDPELPRNTPKRSIETLLKCEFSNDCEVIARKRFREVDAVLSWLLEYAPSRLTGTGACVFAEFDTESEARQVLEQAPEWLNGFVAKGANLSPLHRAMLSLGGGGSAAAMRIGHGFDVHAFGGEGPIIIGGVRIPYEKGLLAHSDGDVALHALTDALLGAAALGDIGKLFPDTDPAFKGADSRELLREAWRRIQAKGYTLGNVDVTIIAQAPKMLPHIPQMRVFIAEDLGCHMDDVNVKATTTEKLGFTGRGEGIACEAVALLIKATK
B1: in assay [1], the “decrease in lycopene production than SALyc-SDFEI” value is “at least 65%” and the “decrease in normalized lycopene titers than SALyc-SDFEI” value is 85%. The “lycopene production / titers, in words” value in assay [1] (comparison as stated in the sentence (FIGS. 21, 23, 25)) is “lowered the lycopene production substantially”.

B2: IspDF3: novel bifunctional IspD-IspF fusion from soil metagenome fosmid NR0037_N05, 40.2 kDa (protein)
chain: MVHVSAIIAAGGRGERFGGPQPKQLLLLGGVPILKRTVDAFLRGYPFIEVIVALPAEFVANPPDYLDDVIVVEGGARRQDSVANAFRAVAPSAQVVVIHDAARPLVTPSLIERTVDAAVKHGAAIAALRATDTVKRGDASRVIRGTLPRDEIFLAQTPQAFRAGVLRDALALAASAADATDEAMLAEQAGHHVRLVDGDPRNLKITTPEDLEMRIGNGYDLHRLVTGRPLVLGGVTIPFEKGLQGHSDADAVCHAITDAILGAASAGDIGRHFPDTDPAWKDAKSIVLLQQAAQIVSRAGYAIANLDVVVIAQQPKLVPHIDAIRHSVAHALGIDVQQVSVKGKTNEGVDSMGAGESIAVHAVALLQHS
Take B2: the “terpene titer (lycopene and isoprene), in words” value in assay [1] is listed as “lowered the titer”.

B3: pcaK: MFS aromatic acid antiporter amplified from Pseudomonas putida KT2440 (protein, UniProt Q51955 1-448, looked up)
4-hydroxybenzoate transporter …: MNQAQNSVGKSLDVQSFINQQPLSRYQWRVVLLCFLIVFLDGLDTAAMGFIAPALSQEWGIDRASLGPVMSAALIGMVFGALGSGPLADRFGRKGVLVGAVLVFGGFSLASAYATNVDQLLVLRFLTGLGLGAGMPNATTLLSEYTPERLKSLLVTSMFCGFNLGMAGGGFISAKMIPAYGWHSLLVIGGVLPLLLALVLMVWLPESARFLVVRNRGTDKIRKTLSPIAPQVVAEAGSFSVPEQKAVAARSVFAVIFSGTYGLGTMLLWLTYFMGLVIVYLLTSWLPTLMRDSGASMEQAAFIGALFQFGGVLSAVGVGWAMDRYNPHKVIGIFYLLAGVFAYAVGQSLGNITVLATLVLIAGMCVNGAQSAMPSLAARFYPTQGRATGVSWMLGIGRFGAILGAWSGATLLGLGWNFEQVLTALLVPAALATVGVIVKGLVSHADAT
B3: in assay [2], the “olivetolate uptake inside cells” value is “increased olivetolate uptake”. In addition, the “production of CBGA” value in assay [3] was “increased production of CBGA”.

B4: IspDF2: novel bifunctional IspD-IspF fusion from soil metagenome fosmid NR0032_O07, 42.1 kDa (protein)
chain: MQVTAIIAAGGRGRRFGGGVPKQLVGVGGRPILERTVAAFLGHPAIHEVVVALPAELMADPPAYLRAAPKPIRLVAGGVQRQDSVRQAFQAANEQSDVIVIHDAARPFASADLISRTIAAAAEGGAALAAVPARDTVKRGAFAAGRTGPAGRQAVEGAPLLVVAETLPRDSIYLAQTPQAFRRDVLRDALALGEAGSEATDEATLAERAGHIVRLVEGEPANIKITTPDDLLVAFRIGAGYDLHRLVEGRPLVLGGVTIPFERGLLGHSDADAICHAVTDAVLGAAAAGDIGRHFPDSDPKWRDWSSIDLLRRASAIVKGRGYAIANVDAVVIAERPKLAPFLDEMRANVAGAIGIAVDAVGIKGKTNEGLGELGRGEAIAVHAVALLHL
As to B4, the “terpene titer (lycopene and isoprene), in words” value in assay [1] is on record as “lowered the titer”.
